Where no end group is shown, it is not given here.
B1: Phage-564 (peptide)
peptide: YCSGHLPQYMQKCL
notes: Clonal phage of the Peptide-87 library, tested as crude supernatant; not shown: pIII of the bacteriophage to which the peptide is fused
B2: Phage-565 (peptide)
peptide: YCDGHSSEYMAKCL
notes: as for B1
B3: Phage-566 (peptide)
peptide: YCDGHAPQYMQKCL
B4: Phage-567 (peptide)
peptide: YCEGHLPIYLEKCM
B5: Phage-568 (peptide)
peptide: YCEGHTPEYMQKCL
B6: Phage-569 (peptide)
peptide: YCDGHLPQYMMKCL
modifications: cysteine pairing not given here; also: displayed on phage by fusion to pIII, pIII and linker sequence not given here
B7: Phage-570 (peptide)
peptide: YCDGHSTEYLWKCL
modifications: cysteine pairing not given here; also: displayed on phage by fusion to pIII, pIII and linker sequence not given here
B8: Phage-571 (peptide)
peptide: YCEGHLGIYMYKCL
modifications: cysteine pairing not given here; also: displayed on phage by fusion to pIII, pIII and linker sequence not given here
B9: Phage-572 (peptide)
peptide: YCDGHAAEYMAKCL
modifications: cysteine pairing not given here; also: displayed on phage by fusion to pIII, pIII and linker sequence not given here
B10: Phage-573 (peptide)
peptide: YCEGHSQEYMSKCL
modifications: cysteine pairing not given here; also: displayed on phage by fusion to pIII, pIII and linker sequence not given here
B11: Phage-574 (peptide)
peptide: YCDGHLPEYLWKCL
modifications: cysteine pairing not given here; also: displayed on phage by fusion to pIII, pIII and linker sequence not given here
B12: Phage-575 (peptide)
peptide: YCEGHLPMYMEKCL
modifications: cysteine pairing not given here; also: displayed on phage by fusion to pIII, pIII and linker sequence not given here
B13: Phage-576 (peptide)
peptide: YCDGHLSEYMEKCL
modifications: cysteine pairing not given here; also: displayed on phage by fusion to pIII, pIII and linker sequence not given here
B14: Phage-577 (peptide)
peptide: YCEGHSPLYMWKCL
modifications: cysteine pairing not given here; also: displayed on phage by fusion to pIII, pIII and linker sequence not given here
B15: Phage-578 (peptide)
peptide: YCEGHSPEYMEKCL
modifications: cysteine pairing not given here; also: displayed on phage by fusion to pIII, pIII and linker sequence not given here
B16: Phage-579 (peptide)
peptide: YCAGHLPEYMEKCL
B17: Phage-580 (peptide)
peptide: YCEGHAWEYMAKCL
B18: Phage-581 (peptide)
peptide: YCQGHLPEYMNKCL
B19: Phage-582 (peptide)
peptide: YCDGHSQEYMAKCL
B20: Phage-588 (peptide)
peptide: YCDGHSAEYMAKCL
B21: Phage-583 (peptide)
peptide: YCQGHLPIYMEKCL
B22: Phage-584 (peptide)
peptide: YCDGHLPLYLAKCL
B23: Phage-585 (peptide)
peptide: YCDGHLPQYMNKCL
B24: Phage-586 (peptide)
peptide: YCEGHAPMYMWKCL
B25: Phage-587 (peptide)
peptide: YCEGHLPEYMQKCM
B26: Phage-589 (peptide)
peptide: YCEGHSPEYMYKCL
B27: Phage-590 (peptide)
peptide: YCDGHSMEYMSKCL
B28: Phage-591 (peptide)
peptide: YCEGHLPMYMDKCL
B29: Phage-592 (peptide)
peptide: YCDGHRGEYLQKCL
notes: Tested as clonal phage supernatant
B30: Phage-593 (peptide)
peptide: YCEGHSPQYMWKCL
notes: as for B29
B31: Phage-594 (peptide)
peptide: YCEGHAAEYMTKCL
notes: as for B29
B32: Phage-595 (peptide)
peptide: YCEGHLPQYMKKCL
notes: as for B29
B33: Phage-596 (peptide)
peptide: YCDGHIEEYRAKCL
notes: as for B29
B34: Phage-601 (peptide)
peptide: YCDGHAPEYMLKCL
notes: as for B29
B35: Phage-597 (peptide)
peptide: YCEGHAPEYMLKCL
notes: as for B29
B36: Phage-602 (peptide)
peptide: YCDGHAPDYMLKCL
notes: as for B29
B37: Phage-598 (peptide)
peptide: YCDGHAPEYMEKCM
notes: as for B29
B38: Phage-599 (peptide)
peptide: YCEGHTVEYMAKCL
notes: as for B29

How the values were obtained:
[1] = target: T1, Anti-CD28 Fab (SEQ ID NOs: 696, 697); experiment: phage binding ELISA, Fab on plate pre-incubated with CD28 antigen as competitor
T1 construct: Biotinylated and captured on neutravidin coated plates in the phage ELISA
T1 sequence (VH, as listed by the source, chain 1 of 2): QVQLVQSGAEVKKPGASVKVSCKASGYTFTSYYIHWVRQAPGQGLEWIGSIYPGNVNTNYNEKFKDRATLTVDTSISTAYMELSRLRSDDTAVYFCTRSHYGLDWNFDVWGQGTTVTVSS
T1 sequence (VL, as listed by the source, chain 2 of 2): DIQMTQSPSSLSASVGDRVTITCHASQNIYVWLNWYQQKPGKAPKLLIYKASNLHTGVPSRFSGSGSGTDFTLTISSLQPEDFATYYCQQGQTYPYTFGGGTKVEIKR
Method: (§1) After panning, phage infected bacteria were plated out and colonies picked into 96 well blocks. Clonal phage was then amplified and separated from bacterial cells via centrifugation.
(§2) Clonal phage were harvested as crude supematants and screened via standard ELISAs. […] Prior to the addition of clonal phage, wells were incubated with blocking buffer and CD28 antigen or blocking buffer alone. Without washing or aspirating, clonal phage supematants were then added to the wells and incubated for a short time. Wells were then washed followed by detection of bound phage using a horse radish conjugated anti-M13 antibody. Clonal phage of interest were then sent for sequence analysis.

[2] = target: T1, Anti-CD28 Fab (SEQ ID NOs: 696, 697); experiment: phage binding ELISA, biotinylated Fab on neutravidin plate, anti-M13 HRP detection;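 also: crude clonal phage supernatants added to Fab-coated wells pretreated with CD28 antigen or with blocking buffer only, bound phage measured after washing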
Method: as §1, §2

[3] = target: T2, Anti-CD28 Fab (SEQ ID NOs: 696, 697); experiment: phage binding ELISA on captured anti-CD28 Fab; competitor: CD28 antigen
T2 construct: In the phage ELISA the Fab was biotinylated and captured on neutravidin coated plates
T2 sequence (VH, as listed by the source, chain 1 of 2): as the sequence (VH, as listed by the source, chain 1 of 2) above
T2 sequence (VL, as listed by the source, chain 2 of 2): as the sequence (VL, as listed by the source, chain 2 of 2) above
Method: as §1, §2

[4] = target: T2, Anti-CD28 Fab (SEQ ID NOs: 696, 697); experiment: phage binding ELISA; biotinylated anti-CD28 Fab on neutravidin plate, bound phage detected with anti-M13 HRP;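 also: crude supernatants of clonal phage screened, wells pretreated with blocking buffer with or without CD28 antigen before brief phage incubation, washed, then bound phage detected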
[5] = target: Anti-CD28 Fab (SEQ ID NOs: 696, 697); experiment: phage binding ELISA; captured anti-CD28 Fab pre-incubated with CD28 antigen as competitor, anti-M13 HRP
Target sequence in this assay (VH, as listed by the source, chain 1 of 2): as the sequence (VH, as listed by the source, chain 1 of 2) above
Target sequence in this assay (VL, as listed by the source, chain 2 of 2): as the sequence (VL, as listed by the source, chain 2 of 2) above
Method: as §1, §2

[6] = target: Anti-CD28 Fab (SEQ ID NOs: 696, 697); experiment: phage binding ELISA; biotinylated anti-CD28 Fab on neutravidin plate, clonal phage supernatant, anti-M13 HRP;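 also: crude clonal phage supernatants screened after wells were preincubated either with CD28 antigen in blocking buffer or with blocking buffer only, phage added without washing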
Target sequence in this assay (VH, as listed by the source, chain 1 of 2): as the sequence (VH, as listed by the source, chain 1 of 2) above
Target sequence in this assay (VL, as listed by the source, chain 2 of 2): as the sequence (VL, as listed by the source, chain 2 of 2) above
Method: as §1, §2

[7] = target: T3, Anti-CD28 Fab (SEQ ID NOs: 696, 697); experiment: phage ELISA; plate-bound anti-CD28 Fab pre-incubated with CD28 antigen as competitor, anti-M13 HRP detection
T3 construct: In the phage ELISA the Fab was biotinylated and captured on neutravidin coated plates
T3 sequence (VH, as listed by the source, chain 1 of 2): as the sequence (VH, as listed by the source, chain 1 of 2) above
T3 sequence (VL, as listed by the source, chain 2 of 2): as the sequence (VL, as listed by the source, chain 2 of 2) above
Method: as §1, §2

[8] = target: T3, Anti-CD28 Fab (SEQ ID NOs: 696, 697); experiment: phage ELISA; biotinylated anti-CD28 Fab on neutravidin plate, clonal phage supernatant, anti-M13 HRP detection;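 also: crude supernatants of single phage clones picked after panning were screened for binding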
Method: as §1, §2

Binder	Anti-CD28 Fab signal in the presence of CD28 [3]	Anti-CD28 Fab signal [4]	Anti-CD28 Fab signal in the presence of CD28 [5]	Anti-CD28 Fab (SEQ ID NOs: 696, 697) signal [6]	other results
B1					Anti-CD28 Fab signal in the presence of CD28 [1]: 0.08; Anti-CD28 Fab (SEQ ID NOs: 696, 697) signal [2]: 2.28
B2					Anti-CD28 Fab signal in the presence of CD28 [1]: 0.09; Anti-CD28 Fab (SEQ ID NOs: 696, 697) signal [2]: 2.28
B3	0.11	2.28			
B4	0.1	2.27			
B5	0.07	2.27			
B6	0.14	2.27			
B7	0.06	2.26			
B8	0.14	2.26			
B9	0.13	2.26			
B10	0.07	2.26			
B11	0.13	2.26			
B12	0.1	2.25			
B13	0.08	2.25			
B14	0.06	2.25			
B15	0.07	2.24			
B16			0.12	2.24	
B17			0.07	2.24	
B18			0.08	2.24	
B19			0.08	2.24	

Binder	Anti-CD28 Fab signal in the presence of CD28 [3]	Anti-CD28 Fab signal [4]	Anti-CD28 Fab signal in the presence of CD28 [5]	Anti-CD28 Fab (SEQ ID NOs: 696, 697) signal [6]	other results
B20			0.07	2.23	
B21			0.09	2.24	
B22			0.09	2.23	
B23			0.1	2.23	
B24			0.08	2.23	
B25			0.08	2.23	
B26			0.1	2.23	
B27			0.09	2.22	
B28			0.07	2.22	
B29					Phage binding ELISA, Anti-CD28 Fab signal in the presence of CD28 [7]: 0.09; Phage binding ELISA, Anti-CD28 Fab signal [8]: 2.22
B30					Phage binding ELISA, Anti-CD28 Fab signal in the presence of CD28 [7]: 0.12; Phage binding ELISA, Anti-CD28 Fab signal [8]: 2.22
B31					Phage binding ELISA, Anti-CD28 Fab signal in the presence of CD28 [7]: 0.08; Phage binding ELISA, Anti-CD28 Fab signal [8]: 2.22
B32					Phage binding ELISA, Anti-CD28 Fab signal in the presence of CD28 [7]: 0.1; Phage binding ELISA, Anti-CD28 Fab signal [8]: 2.22
B33					Phage binding ELISA, Anti-CD28 Fab signal in the presence of CD28 [7]: 0.07; Phage binding ELISA, Anti-CD28 Fab signal [8]: 2.21
B34					Phage binding ELISA, Anti-CD28 Fab signal in the presence of CD28 [7]: 0.07; Phage binding ELISA, Anti-CD28 Fab signal [8]: 2.2
B35					Phage binding ELISA, Anti-CD28 Fab signal in the presence of CD28 [7]: 0.07; Phage binding ELISA, Anti-CD28 Fab signal [8]: 2.21
B36					Phage binding ELISA, Anti-CD28 Fab signal in the presence of CD28 [7]: 0.09; Phage binding ELISA, Anti-CD28 Fab signal [8]: 2.2
B37					Phage binding ELISA, Anti-CD28 Fab signal in the presence of CD28 [7]: 0.07; Phage binding ELISA, Anti-CD28 Fab signal [8]: 2.21
B38					Phage binding ELISA, Anti-CD28 Fab signal in the presence of CD28 [7]: 0.08; Phage binding ELISA, Anti-CD28 Fab signal [8]: 2.2
